# In the DeepSol protein solubility set:
# Assay: soluble on expression in E. coli; label from the status in PepcDB or PDB records
row,Sequence,soluble on expression in E. coli
1,MKKFFMASLLGSAIALCTTAMAASTDLKALEDAARKEGTVNSVGMPDAWANWKGTWEDLASKYGLKHSDTDMSSAQELAKFEAEKDNASADIGDVGAAFGPIAVTKGVSQPYKPSTWDQVPEWAKDKDGHWALAYTGTIAFIINKDLVKEEERPKTWHDLEKGKYKVAIGDVGTAAQAANGVLAAAIAYKGDESNVAPGLQLFTKLAQQKRLSLANPTIQTLEKGEVEVGVVWDFNGLSYREQIDPKRFEVLIPSDGSVISGYTTVINKYAKHPNAAKLTREYIFSDAGQINLAKGHARPIRAEHLKLPADVQAKLLPNDQYAAAQPIKNAEAWEATSKKLPQMWQEQVIIEME,not soluble
2,MKKILLCCSAGMSTSMLVKKMQQAAESKGIECKIDALSVNAFEEAIQEYDVCLLGPQVRFQLEELRKTADEYGKNIAAISPQAYGMMKGDEVLQQALDLIN,not soluble
3,MKKISEQKRKHLENLVDDQGIIGALAIDQRGALKRMMGKYKEVTAQEISDFKVLVSRCLTPETSAILLDPEYGLAAAENRAQTSGLLLAYEKTGYDASTPGRLPDSLDVWSVKRLKEAGADACKFLLYYDVDESEAINERKKAYIERIGSECLAEEIPFFLEIVSYDANNSDSASKEYAKVKPHKVIEAMKEFSKDRYNVDVLKVEVPVNMNFVEGFGTESLYSQDEAQAFFNMQSEATQLPFIFLSAGVSATMFQETLKFAKKAGSSFNGVLCGRATWADGVLPFVQQGAEAAVAWLETTGKTNVEELNQVLRESAVSVFEKIQ,not soluble
4,MKKKDTCEIFGYDEEKVNRIQGDLQTVDISGVSQILKAIADENRAKITYALCQDEELCVCDIANILGVTIANASHHLRTLYKQGVVNFRKEGKLALYSLGGEAIRQIMMIALAHKKEVKVNV,soluble
5,MKKKLVGVECLNEYICQSSNKLYADSSVILTPGARDELSRRGVTVVYGPRPESGEAPAACPPGCTCPACTAAKADSGLEQLLFAVAAMLKTEYGITDPEELKNLSCQALRTIKANL,not soluble
6,MKKLKMASCALVAGLMFSGLTPNAFAEDKISDVKSQINTQNDTLHKQQQERDELQKQMNDLNKTIQGLDKSVQENAAKLDETTKKVADTEQLIEKKNKDIAELQTKIAKREELLRKRLVALQEQPNTNVVTEVLVNSKNVADLVDRLTSVSKILESDEDIMKTQQEDQANVKKDVETVKTKQKELKEAQAQIETAKKELDAEKAKKATAVNDLSGKMDTVVTSMTSTESQLKDLEKQALQLQRIAEQEAQEKAAQEAAAQKQAEQAAKDAQAQPAQAAPAQPAAPANNGGQAQKEEPKKEEPKKEAPKKEDKKPEPTPGPAPAPGVIGKAQQYLGLPYVWGSASPSNGGFDCSGFISYVFGVGRQDVNGYWHSVSKVSSPQPGDLVFFQNTYKNGPSHIGIYVGNGQMIHAGDKGIAYSSLSSSYNQKHFLGYGRF,not soluble
7,MKKLLAGVLVSAIAFAKPVFMDAEWAKQFCEVWNNTPELVEKLGKSESWTEVPERKLFLYRKDCGPEKQIQLTIKNENGRAVCVYGGWKKDEKTDNDFLMYADTKRWLEMGRKEYGPMKAMLFGRLKFEGPRFVAMKNMGPFEAFLDKIDEVEADTSRCP,not soluble
8,MKKLLIMLIRFYQRYISPLKPPTCRFTPTCSNYFIQALEKHGLLKGTFLGLRRILRCNPLSKGGYDPVPEEFSFKPRRRWS,soluble
9,MKKNLLAIALGSVIALTAAPYSLAANDSTIQSSADYSQLVTKRQVVDQLLNDAVEAFKSPARISHAGFTAKMPSNMEIVTDRLLEAYQLEPYRTDLLISAANAQIYNKNVDRAIELFEQALAVAPDDVDLHAYLAVWQRFKGNQAESDQHMATLAKLNAGKAADINRIFDTVDRVLATPLKEKADKGKLDNKGAIVTLGYALNPDGSMHQILVERLETTLAMAKANPDAIIILTGGVPKNHKTEGKLMADWLIGKGVSKDRIIEENYATSTVGNALFSSYALARHNIKHATIISSASHVRRGQTLFEIASWQTGPQGITFDTVSYPDKPLKDLAKASESELLGIYRDALRTYGMWSYRSYPLESRLEHHHHHH,soluble
10,MKKNLLLLLCLFCLVNVCHAKAKDTFTVFQLNLWHGCTKVPNGDQGIIDVLDQMDADVVFLCEIRDGKQFIPHVIEELEKRGKHYYGETFDLAIGVLSKFKPDSWTKCCIVPGDEGRAMVKMVATIEGQPVSFYSCHLDYRHYQCYMPRGYNGTTWKKMDKPITDEEEVLKANRQSFRDETIRAFIQEVQSDIQQGRPIIMGGDFNEPSHLDWQADTKDLWDHNGAIIHWDCSMMLSKAGFKDAYREKFPNTVRYPGFTFPAGNKLAEEAKLEKLAWAPEADERDRIDFIYYYPLESMLSMKDSKLVGPSETVVRGKITENDSKDKILTPSCIWPSDHKGNLATFKIRKKRLEHHHHHH,not soluble
11,MKKRLNIGLVGLGCVGSAVAKILQENQEIIKDRAGVGIGIKKAVVRDVKKHKGYPFEISNDLESLIEDEEIDIVVELMGGVEAPYLLAKKTLAKQKAFVTANKAMLAYHRYELEQTAKNTPIGFEASVCGGIPIIKALKDGLSANHILSFKGILNGTSNYILSQMFKNQASFKDALKDAQHLGYAELNPEFDIKGIDAAHKLLILASLAYGIDAKLEEILIEGIEKIEPDDMEFAKEFGYSIKLLGIAKKHPDCIELRVHPSMIKNECMLSKVDGVMNAISVIGDKVGETLYYGAGAGGEPTASAVISDIIEIARKKSSLMLGFETPQKLPLKPKEEIQCAYYARLLVSDEKGVFSQISAILAQNDISLNNVLQKEILHSNKAKILFSTHTTNEKSMLNALKELENLQSVLDTPKMIRLEN,not soluble
12,MKKRVHILIMTLMLIVACVGCSGSSDNPPPANSLHSASTIPISAMPSFSTPSPTVEDTENQQSKTVNYLINSMTLEEKIGQIFIVAFRKGKSSRPLKVLDNSTKLKIQNFNPGGIILFSENIDTIPQTQKLIRDMQEASKIPMFIAVDEEGGRIARIGNNPKMHSTKIPSAQTIGLADDPELAYEAGRILGAELSALGFNMNFAPVADVNTNPDNPVIGDRSFGSDPYKVGLMVQAMSKGMQEQNVCTVLKHFPGHGDTSYDSHLGQVVINHDIERLRQIELTPFKMGIKAGADGVMTAHIIMPNITGSNLPATLSEEILSGLLRNELKHEKLIITDAMEMKAISNYWSSSKAAVMAFKAGADIILMPESFEEAYNGILKAVKDGEITEERLNQSLQRILALKFERNILANKESSVDPEKVLGRQEHTDIVVKIMQKAEEQNIP,not soluble
13,MKKSVDFIGVGTGPFNLSIAALSHQIEELNCLFFDEHPHFSWHPGMLVPDCHMQTVFLKDLVSAVAPTNPYSFVNYLVKHKKFYRFLTSRLRTVSREEFSDYLRWAAEDMNNLYFSHTVENIDFDKKSRLFLVQTSRGEYFARNICLGTGKQPYLPPCVKHVTQSCFHASEMNLRRPDLSGKRITVVGGGQSGADLFLNALRGEWGEAAEINWVSRRNNFNALDEAAFADEYFTPEYISGFSGLKEDIRHQLLDEQKMTSDGITADSLLTIYRELYHRFEVLRKPRNIRLLPSRSVTTLESSGPGWKLLMEHHLDRGRESLESDVVIFATGYRSALPQILPSLMPLITMHDKNTFKVRDDFTLEWSGPKENNIFAVNASMQTHGIAEPQLSLMAWRSARILNRVLGRDLFDLSMPPALIQWRSGSRKKPQPEAAALTHYTTNIQE,soluble
14,MKKVAIIGAGIVGATAAYYLSKEKDIAVTVFDDGFGQATKAAAGIICPWFSKRRHKAWYRLARLGADFYQTLLSDLKRDACKVDFYEQSGAFLLKNKAESLDELFEIGQKRKSQSPLIGHLEIQKRADLTGLLADLVGFDRCIYASGAARVEGASLTEALLNASHAKMVNKKVGLQVLSDGNYRVNGKKYTAVLLACGAWLPQILEPLGYKIDIRPQKGQLRDYFFNSEDTEKFPVIMPEGEVDIIPFAHGKVSVGASHENDHGFDLQIDNSVLDKMEKEAQTYFPKLKEATSKNERVGTRAYTRDFAPFFGRVTGLANVYAASGLGSSGLTTGPLIGNQLVKMLLDKELDIQASDYSPDKYIVKNSLEHHHHHH,not soluble
15,MKKWRFLGIDDSFDDRKCCVVGCVTCGGYVEGFLYTEIDIDGLDATDKLISMVRRSKFREQIKCIFLPGITLGGFNLVDIQRVYRETKIPVVVVMRRKPDMEEFDSAMRNLENYELRRKIVEVAGEIHRIGDIYIQTAGLTPSEAEKLVKASLIKGNMPEPVRISHLVASAIIHGESRGKA,soluble
16,MKKYILTLILALASLGLYAQTNRNKTIINAALHGWEYEIKAGVNLGGTAPLPFPEEIRSIDGYNPTLSITIEGNMTKWLDTKKKWGIITGLRLENKGMRTKATVKNYNMEIIGYDGNRLKGNWTGGVRTKVQNSYITIPVLAAYKLSPRTTLKLGPYFSYLMDGDFSGHVYEGYLRETNPTGDKINFTNGAIATYDFSGDLRKFQWGVQAGVDWKAFKHLKVHADLNWGLNDIFNKDFKTVTFDMYAIYLNVGFGYAF,not soluble
17,MKLASLKSTRSRDGELCIVNRLLTAAIRVPHIASTLQYALDHWDVVEPKLQLVYQQLNDNQIEDAFAFAPELCASPLPRAYQWADGSAYVNHVELVRKARGAEMPADFWTNPLMYQGGSDAFLGPRDPILVSSEAYGIDFESEVAVITDDVPMGIDHTNAAHHIKLLMLVNDVSLRNLIPEELAKGFGFFQSKPASSFSPVAITPDELGSYWDGQRVNLPLISHLNEQLFGQPNAGVDMTFSFPELIQHAAKTRFLTAGTIIGSGTVSNLDRSKGSSCIAEKRMLEMIEFGQAKTPFMRFGDRIRIEMLDGQGYSLFGSIDQIVTKYDKDSL,not soluble
18,MKLDPQTLAHITSATLGNYNRVADDFREGTRDHDVSQNIDALLRHIEGSAPWQILDFGCGPGRDLKTFTAMGHVAVGLDGSERFAEMARAETGCEVFQQNFLELDLPQGRFDGIFANAVLFHIPRQELPRVLRELYATLKPGGVLFSSNPRGQNQEGWQGERYGAYHDLETWRQLLTDAGFAELEHYYRPLEHHHHHH,soluble
19,MKLERVLPFARSLLQTAVKEGDYAVDATLGNGHDTCFLAEIVGDNGKVFGFDIQKEAIESSTTRLKEKELFERTVLVHDSHDTLLSILPEDAKGKVTGAIFNLGYLPGGDKHIVTKPNSTISAIEQLLEVMAPEGIIVLVIYHGHPEGQVERDAVLKFAEELDQKQAHVLRYGFINQQNNPPFIVAIEKRLEHHHHHH,soluble
20,MKLFHTADWHLGKLVHGVYMTEDQKIVLDQFVQAVEEEKPDAVIIAGDLYDRAIPPTEAVDLLNDVLQKIVIDLQTPVIAVAGNHDSPDRIHFGSSLMKKQGLHIVGQFQFPYEPVVLNDEYGEVHFHLIPYADPSIVRHVLKNEDVRSHDDAMRIFMNELSETMDKEARHVFVGHAFVTSSGEAEENTSDAERPLSIGGAEYVNSHYFDKFHYTALGHLHQAHFVRNETIRYSGSPLAYSISEEKHKKGYYIVELNETGEVAIEKRLLSPRRKMRTVEAKIDELLQHPVSEDYVFVKLLDENPVLQPMEKIRSVYPNAMHVERAMQRRELTDTNEVTVSRHKTDDLSLLKAFYKEMKGLDLSEEKERLFIDVLQTVQEREGERG,not soluble
21,MKLIIHQKWYLQQVKDTFTNLQAPRLHWALRNALNTAAKQVERFTEKQVADLSSAQIKRIRRGVYIKEKATARFLETDLIGSGTPLPLKFFKAKETKHGVTYTLFGKKQILTHGFIKGGSFPKRVDLKMGGNVFQRDDGDQFPIAKQEGPSIAKVMSKPEIASAIAQYANERLTKNIQRQLARQEYAANKKG,not soluble
